Results published in patent US20210238296A1 (Genmab, published 2021).

T1: diFCGR2B-HisBAP (dimeric extracellular domain of FcγRIIB) (Homo sapiens (Human), UniProt P31994 44-223, C-terminally biotinylated)
T1 construct: dimeric, His-tagged, C-terminally biotinylated ECD
T1 sequence: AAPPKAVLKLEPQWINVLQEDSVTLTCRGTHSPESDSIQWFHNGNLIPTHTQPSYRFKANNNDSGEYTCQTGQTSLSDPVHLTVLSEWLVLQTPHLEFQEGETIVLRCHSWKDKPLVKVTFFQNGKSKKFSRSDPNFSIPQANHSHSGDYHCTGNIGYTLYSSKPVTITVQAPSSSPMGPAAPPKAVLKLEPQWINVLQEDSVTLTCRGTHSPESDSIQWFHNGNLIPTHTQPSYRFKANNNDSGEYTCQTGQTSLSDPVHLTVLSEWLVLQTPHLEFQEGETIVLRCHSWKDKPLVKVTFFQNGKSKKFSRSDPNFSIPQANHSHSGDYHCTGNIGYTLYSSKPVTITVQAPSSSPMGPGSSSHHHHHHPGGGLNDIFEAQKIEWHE

T2: diFCGR2AH-HisBAP (dimeric extracellular domain of FcγRIIA allotype 131H) (Homo sapiens (Human), UniProt P12318 34-215, C-terminally biotinylated)
T2 construct: dimeric, His-tagged, C-terminally biotinylated ECD; also called IIA-131H
T2 sequence: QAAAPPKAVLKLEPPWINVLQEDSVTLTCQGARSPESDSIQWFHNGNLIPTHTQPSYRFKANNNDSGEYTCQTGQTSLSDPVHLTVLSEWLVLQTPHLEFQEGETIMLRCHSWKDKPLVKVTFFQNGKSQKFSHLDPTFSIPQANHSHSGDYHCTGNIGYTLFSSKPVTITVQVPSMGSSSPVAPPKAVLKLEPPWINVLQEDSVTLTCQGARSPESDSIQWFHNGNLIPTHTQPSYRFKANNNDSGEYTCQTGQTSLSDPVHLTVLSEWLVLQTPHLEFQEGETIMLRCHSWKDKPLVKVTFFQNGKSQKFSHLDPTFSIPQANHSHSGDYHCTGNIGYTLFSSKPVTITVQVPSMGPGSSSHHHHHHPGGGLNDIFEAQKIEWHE

T3: diFCGR2AR-HisBAP (dimeric extracellular domain of FcγRIIA allotype 131R) (Homo sapiens (Human), UniProt P12318 36-215, C-terminally biotinylated)
T3 construct: dimeric, His-tagged, C-terminally biotinylated ECD; also called IIA-131R
T3 chain: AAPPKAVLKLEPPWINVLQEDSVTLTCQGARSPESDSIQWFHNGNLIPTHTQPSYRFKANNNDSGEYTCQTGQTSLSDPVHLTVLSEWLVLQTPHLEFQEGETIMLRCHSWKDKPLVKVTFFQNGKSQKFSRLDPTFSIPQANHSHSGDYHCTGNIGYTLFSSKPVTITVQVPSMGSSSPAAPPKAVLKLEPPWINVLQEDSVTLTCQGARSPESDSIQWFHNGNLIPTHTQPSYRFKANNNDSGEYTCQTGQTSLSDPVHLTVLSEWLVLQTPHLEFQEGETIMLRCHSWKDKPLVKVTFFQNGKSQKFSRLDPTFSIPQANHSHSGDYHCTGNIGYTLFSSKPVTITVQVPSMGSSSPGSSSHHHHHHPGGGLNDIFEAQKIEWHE

T4: CD20 (human, UniProt P11836 1-297)
T4 construct: whole, on cells; cell surface target of IgG1-11B8; also called human CD20
T4 sequence (looked up): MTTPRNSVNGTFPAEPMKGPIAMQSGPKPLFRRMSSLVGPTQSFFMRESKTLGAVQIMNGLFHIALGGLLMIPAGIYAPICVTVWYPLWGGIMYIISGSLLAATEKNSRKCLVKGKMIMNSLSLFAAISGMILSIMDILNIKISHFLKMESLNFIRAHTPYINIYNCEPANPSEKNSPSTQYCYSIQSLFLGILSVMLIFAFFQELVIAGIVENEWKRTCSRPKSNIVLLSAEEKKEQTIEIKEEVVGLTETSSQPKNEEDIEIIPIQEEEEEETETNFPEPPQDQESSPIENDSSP

B1: IgG1-11B8-E430G-S440K-E333S (antibody)
heavy: EVQLVQSGGGLVHPGGSLRLSCTGSGFTFSYHAMHWVRQAPGKGLEWVSIIGTGGVTYYADSVKGRFTISRDNVKNSLYLQMNSLRAEDMAVYYCARDYYGAGSFYDGLYGMDVWGQGTTVTVSSASTKGPSVFPLAPSSKSTSGGTAALGCLVKDYFPEPVTVSWNSGALTSGVHTFPAVLQSSGLYSLSSVVTVPSSSLGTQTYICNVNHKPSNTKVDKRVEPKSCDKTHTCPPCPAPELLGGPSVFLFPPKPKDTLMISRTPEVTCVVVDVSHEDPEVKFNWYVDGVEVHNAKTKPREEQYNSTYRVVSVLTVLHQDWLNGKEYKCKVSNKALPAPISKTISKAKGQPREPQVYTLPPSREEMTKNQVSLTCLVKGFYPSDIAVEWESNGQPENNYKTTPPVLDSDGSFFLYSKLTVDKSRWQQGNVFSCSVMHGALHNHYTQKKLSLSPGK
light: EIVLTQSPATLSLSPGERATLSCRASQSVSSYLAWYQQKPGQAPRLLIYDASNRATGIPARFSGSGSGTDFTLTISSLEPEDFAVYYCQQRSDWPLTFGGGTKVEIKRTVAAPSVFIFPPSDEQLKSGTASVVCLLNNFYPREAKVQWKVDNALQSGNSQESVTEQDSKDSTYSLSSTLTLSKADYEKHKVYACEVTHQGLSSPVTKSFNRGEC
notes: also called IgG1-11B8-E333S-E430G-S440K
B2: IgG1-b12 (antibody)
heavy: not shown
light: EIVLTQSPGTLSLSPGERATFSCRSSHSIRSRRVAWYQHKPGQAPRLVIHGVSNRASGISDRFSGSGSGTDFTLTITRVEPEDFALYYCQVYGASSYTFGQGTKLERKRTVAAPSVFIFPPSDEQLKSGTASVVCLLNNFYPREAKVQWKVDNALQSGNSQESVTEQDSKDSTYSLSSTLTLSKADYEKHKVYACEVTHQGLSSPVTKSFNRGEC
notes: HIV gp120-specific negative control with wild type Fc; also called human IgG1 antibody b12

What was measured:
[1] = target: T1, diFCGR2B-HisBAP (dimeric extracellular …); assay: ELISA, captured antibody 20 ug/mL, dimeric biotinylated FcγR ECD
[2] = target: T2, diFCGR2AH-HisBAP (dimeric extracellular …); assay: as above
[3] = target: T5, diFCGR3AF-HisBAP (dimeric extracellular domain of FcγRIIIA allotype 158F) (C-terminally biotinylated); assay: as above
T5 construct: dimeric, His-tagged, C-terminally biotinylated ECD; also called IIIA-158F

[4] = target: T6, diFCGR3AV-HisBAP (dimeric extracellular domain of FcγRIIIA allotype 158V) (C-terminally biotinylated); assay: as above
T6 construct: dimeric, His-tagged, C-terminally biotinylated ECD; also called IIIA-158V

[5] = target: T3, diFCGR2AR-HisBAP (dimeric extracellular …); assay: as above
[6] = target: T7, C1q (human, UniProt P02745 23-245; P02746 28-253; P02747 29-245); assay: flow cytometry of C1q on antibody-opsonized Wien 133 cells, 20% NHS on ice
T7 construct: native C1q in 20% normal human serum, detected with rabbit anti-human C1q-FITC on antibody-opsonized Wien 133 cells; also called human C1q from normal human serum

[7] = target: T8, FcRnECDHis-B2M-BIO (recombinant biotinylated extracellular domain of human FcRn as dimer with … (human, UniProt P55899 24-297; P61769 21-119, biotinylated); assay: FcRn ELISA at pH 6.0
T8 construct: also called FcRnhsECDHis-B2M-BIO

[8] = target: T4, CD20; assay: flow cytometry on Wien 133 and Raji cells (FIG. 7)

T7 sequence (P02745 23-245 limits assumed, chain 1 of 3): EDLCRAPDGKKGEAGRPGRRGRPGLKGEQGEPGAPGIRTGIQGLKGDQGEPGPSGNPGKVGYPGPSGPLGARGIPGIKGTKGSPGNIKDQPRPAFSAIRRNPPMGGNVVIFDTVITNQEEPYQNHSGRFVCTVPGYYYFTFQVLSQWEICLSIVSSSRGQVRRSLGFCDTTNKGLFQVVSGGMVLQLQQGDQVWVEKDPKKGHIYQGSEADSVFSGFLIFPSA
T7 sequence (P02746 28-253 limits assumed, chain 2 of 3): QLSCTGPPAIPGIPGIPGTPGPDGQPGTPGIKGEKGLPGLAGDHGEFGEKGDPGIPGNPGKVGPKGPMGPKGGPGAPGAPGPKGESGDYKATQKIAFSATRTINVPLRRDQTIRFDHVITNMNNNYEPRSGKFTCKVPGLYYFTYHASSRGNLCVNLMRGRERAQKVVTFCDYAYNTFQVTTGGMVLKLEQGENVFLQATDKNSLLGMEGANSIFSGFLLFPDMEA
T7 sequence (P02747 29-245 limits assumed, chain 3 of 3): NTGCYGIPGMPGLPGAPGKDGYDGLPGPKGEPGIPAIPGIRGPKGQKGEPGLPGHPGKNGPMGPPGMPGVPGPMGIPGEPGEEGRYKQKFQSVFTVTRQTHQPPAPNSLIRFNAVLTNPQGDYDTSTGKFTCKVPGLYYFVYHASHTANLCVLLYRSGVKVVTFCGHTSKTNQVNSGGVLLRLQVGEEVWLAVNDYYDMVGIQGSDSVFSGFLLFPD
T8 sequence (P55899 other isoform, or with tags, fused parts or gaps, chain 1 of 2): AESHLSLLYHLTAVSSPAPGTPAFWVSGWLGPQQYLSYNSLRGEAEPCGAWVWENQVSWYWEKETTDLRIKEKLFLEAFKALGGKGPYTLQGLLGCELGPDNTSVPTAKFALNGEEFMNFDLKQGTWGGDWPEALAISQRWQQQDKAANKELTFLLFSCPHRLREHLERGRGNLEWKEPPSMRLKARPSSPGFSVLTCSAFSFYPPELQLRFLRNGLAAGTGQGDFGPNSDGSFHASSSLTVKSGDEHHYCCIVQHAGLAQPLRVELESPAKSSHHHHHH
T8 sequence (P61769 21-119, chain 2 of 2): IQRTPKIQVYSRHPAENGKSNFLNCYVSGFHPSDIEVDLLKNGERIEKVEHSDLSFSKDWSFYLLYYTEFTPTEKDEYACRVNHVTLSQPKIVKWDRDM

| Binder | reduction of FcγR binding against IgG1-11B8-E430G-S440K [1] [%] | reduction of FcγR binding against IgG1-11B8-E430G-S440K [2] [%] | reduction of FcγR binding against IgG1-11B8-E430G-S440K [3] [%] | reduction of FcγR binding against IgG1-11B8-E430G-S440K [4] [%] | reduction of FcγR binding against IgG1-11B8-E430G-S440K [5] [%] | binding result [6] | binding result [7] | binding result [8] |
| --- | --- | --- | --- | --- | --- | --- | --- | --- |
| B1 | ~50 | ~50 | ~20 | ~20 | ~50 | binds |  |  |
| B2 |  |  |  |  |  |  | binds | no binding |
